Drawing on paper PMC8399836, this text covers stoichiometry N for one substance.

This assay addresses individual G6PD protein (g6pd region of the fused G6PD::6PGL enzyme from Giardia lamblia) (Giardia lamblia). Nature of the assay: SEC; size exclusion chromatography (gel filtration) of the purified individual G6PD protein; one peak with G6PD activity; column and buffer not told in the text shown. Background: SEC sorts molecules by how far they enter the pores of the column.

In turn, “individual G6PD protein (g6pd region of the fused G6PD::6PGL enzyme from Giardia lamblia) (domain or fragment)” came in with a stoichiometry N of 2.

Usually stoichiometry N stands for the number of molecules, sites or subunits per partner or assembly.
